Measurements: patent US20230241243A1, “CARRIER PARTICLE-DRUG CONJUGATES, SELF-IMMOLATIVE LINKERS, AND USES THEREOF” (priority 2020, published 2023)

Test: Drug-release assay of nanoparticle-conjugated linker-payloads under cleavage conditions (Cat-B, redox-responsive or pH-sensitive cleaving study), RP-HPLC
Type: in vitro ADME
Settings: linker-payload conjugated to DBCO-functionalized silica nanoparticle, 37° C., 24 hours
Procedure: To assess the drug releasing profile of exemplary linker-drug conjugates, the linker-drug conjugates were each conjugated to a DBCO-functionalized ultrasmall silica nanoparticle via a click chemistry reaction between the azide groups on the linker-drug conjugate precursors and the dibenzocyclooctyne (DBCO) groups of the nanoparticles. The resulting drug-nanoparticle-conjugates were then incubated under the desired releasing conditions for release kinetics tests.
The amount of released drugs vs non-released drugs was measured using reverse phase HPLC by analyzing the area under curve (AUC) (FIG. 10A and FIG. 10B).
General Method: A Waters Xbridge Peptide BEH C18 column with 4.6 mm×50 mm dimensions, a particle size of 5 μm, and a pore size of 300 A was used (part number 186003622). Acetonitrile (VWR HiPerSolv Chromanorm, UHPLC Grade) was used as received without further preparation, […] trifluoroacetic acid in deionized water was prepared by adding 1 mL of trifluoroacetic acid (HPLC grade, Millipore-Sigma) into 999 mL 18.2 MΩ·cm deionized water that was generated using an IQ7000 Millipore deionized water system and passed through a 0.2 μm filter before use. The seal wash used for the system was composed of 90% 18.2 MΩ·cm deionized water and 10% methanol (HPLC grade, VWR). The injection needle was washed using a mixture of 25 vol % 18.2 MΩ·cm deionized water, 25 vol % acetonitrile, 25 vol % methanol, and 25 vol % 2-propanol. Samples were prepared in a concentration range of 0.25 to 2 μM and the injection volume ranges from 60 μL to 10 μL, respectively. Higher sample concentration can be used if detector signal is low. Vials used for all injections are fresh Waters Total Recovery vials with screw caps that have pre-slit PTFE septa (part number 186000385C).
Method for Protease-cleavable and Redox-responsive Linkers: Before any sample injections were started, the PDA lamp was turned on and allowed to warm up for at least 30 minutes. The system and column were equilibrated with 95% 0.01% TFA in deionized water, 5% acetonitrile for at least 10 minutes at a flow rate of 1.0 mL/min after the PDA lamp had warmed up. Two blank injections, with injection volumes of 10 μL containing only 18.2 MΩ·cm deionized water, were performed before the injection of any samples for analysis. The gradient used to elute protease-cleavable and redox-sensitive linkers conjugated to hybrid silica nanoparticles, and their components began at 95% 0.01% TFA in deionized water and 5% acetonitrile and linearly changed to 15% 0.01% TFA in deionized water, 85% acetonitrile over 8 minutes. Acetonitrile composition was increased to 95% over an additional minute and held at 95% for an additional 2 minutes to ensure that any strongly retained compounds are eluted. The composition of the solvent was then changed back to the starting composition of the gradient over an additional minute and allowed to equilibrate for 3 minutes before another injection began. Between sample injections a blank injection was run to ensure that no carryover occurred.
Method for pH-sensitive Linkers: Before any sample injections were started, the PDA lamp was turned on and allowed to warm up for at least 30 minutes. A gradient of pure deionized water and acetonitrile was used, all other consumables including column and vials were the same as for the method to purify Cat-B sensitive and redox-responsive linkers elaborated on above. Briefly the gradient composition began at 95% deionized water and 5% acetonitrile at a flow rate of 1.0 mL/min (not changed throughout the method). The composition was changed from this starting composition to 15% deionized water and 85% acetonitrile over a 12-minute period, during which the retained drug-linkers, released drug, free drug linker, and any other impurities eluted. At the 12-minute mark the composition was rapidly changed to 5% deionized water and 95% acetonitrile over the course of one minute. […]

| Compound | % of Payload Release in 24 Hours Under Cleavage Conditions |
| --- | --- |
| CCc1c2c(nc3ccc(OC(C(=O)N(C)C)c4ccc(NC(=O)[C@H](CCCNC(N)=O)NC(=O)[C@@H](NC(=O)CCOCCOCCOCCOCCOCCOCCOCCOCCOCCN=[N+]=[N-])C(C)C)cc4)cc13)-c1cc3c(c(=O)n1C2)COC(=O)[C@]3(O)CC (stereo partly drawn) [Example 19, 1-azido-N-((2S)-1-(((2S)-1-((4-(1-(((S)-4,11-diethyl-4-hydroxy-3,14-dioxo-3,4,12,14-tetrahydro-1H-pyrano[3′,4′:6,7]indolizino[1,2-b]quinolin-9-yl)oxy)-2-(dimethylamino)-2-oxoethyl)phenyl)amino)-1-oxo-5-ureidopentan-2-yl)amino)-3-methyl-1-oxobutan-2-yl)-3,6,9,12,15,18,21,24,27-nonaoxatriacontan-30-amide] | + (‘+’ indicates 5-25% release) |
| CCc1c2c(nc3ccc(OC(C(=O)N(C)C)c4ccc(NC(=O)[C@H](CCCNC(N)=O)NC(=O)[C@@H](NC(=O)CCOCCOCCOCCOCCOCCOCCOCCOCCOCCOCCOCCN=[N+]=[N-])C(C)C)cc4)cc13)-c1cc3c(c(=O)n1C2)COC(=O)[C@]3(O)CC (stereo partly drawn) [Example 20, 1-azido-N-((2S)-1-(((2S)-1-((4-(1-(((s)-4,11-diethyl-4-hydroxy-3,14-dioxo-3,4,12,14-tetrahydro-1H-pyrano[3′,4′:6,7]indolizino[1,2-b]quinolin-9-yl)oxy)-2-(dimethylamino)-2-oxoethyl)phenyl)amino)-1-oxo-5-ureidopentan-2-yl)amino)-3-methyl-1-oxobutan-2-yl)-3,6,9,12,15,18,21,24,27,30,33-undecaoxahexatriacontan-36-amide] | + (‘+’ indicates 5-25% release) |
| CCc1c2c(nc3ccc(OCc4c(F)cc(NC(=O)[C@H](CCCNC(N)=O)NC(=O)[C@@H](NC(=O)CCOCCOCCOCCOCCOCCOCCOCCOCCOCCN=[N+]=[N-])C(C)C)cc4F)cc13)-c1cc3c(c(=O)n1C2)COC(=O)[C@]3(O)CC [Example 21, 1-Azido-N-((S)-1-(((S)-1-((4-((((S)-4,11-diethyl-4-hydroxy-3,14-dioxo-3,4,12,14-tetrahydro-1H-pyrano[3′,4′:6,7]indolizino[1,2-b]quinolin-9-yl)oxy)methyl)-3,5-difluorophenyl)amino)-1-oxo-5-ureidopentan-2-yl)amino)-3-methyl-1-oxobutan-2-yl)-3,6,9,12,15,18,21,24,27-nonaoxatriacontan-30-amide] | + (‘+’ indicates 5-25% release) |
| CCc1c2c(nc3ccc(OCc4c(F)cc(NC(=O)[C@H](CCCNC(N)=O)NC(=O)[C@@H](NC(=O)CCOCCOCCOCCOCCOCCOCCOCCOCCOCCOCCOCCN=[N+]=[N-])C(C)C)cc4F)cc13)-c1cc3c(c(=O)n1C2)COC(=O)[C@]3(O)CC [Example 22, 1-azido-N-((S)-1-(((S)-1-((4-((((S)-4,11-diethyl-4-hydroxy-3,14-dioxo-3,4,12,14-tetrahydro-1H-pyrano[3′,4′:6,7]indolizino[1,2-b]quinolin-9-yl)oxy)methyl)-3,5-difluorophenyl)amino)-1-oxo-5-ureidopentan-2-yl)amino)-3-methyl-1-oxobutan-2-yl)-3,6,9,12,15,18,21,24,27,30,33-undecaoxahexatriacontan-36-amide] | + (‘+’ indicates 5-25% release) |
| CC[C@@]1(O)C(=O)OCc2c1cc1n(c2=O)Cc2c-1nc1cc(F)c(C)c3c1c2[C@@H](NCc1c(F)cc(NC(=O)[C@H](CCCNC(N)=O)NC(=O)[C@@H](NC(=O)CCOCCOCCOCCOCCOCCOCCOCCOCCOCCOCCOCCN=[N+]=[N-])C(C)C)cc1F)CC3 [Example 23, 1-azido-N-((S)-1-(((S)-1-((4-((((1S,9S)-9-ethyl-5-fluoro-9-hydroxy-4-methyl-10,13-dioxo-2,3,9,10,13,15-hexahydro-1H,12H-benzo[de]pyrano[3′,4′:6,7]indolizino[1,2-b]quinolin-1-yl)amino)methyl)-3,5-difluorophenyl)amino)-1-oxo-5-ureidopentan-2-yl)amino)-3-methyl-1-oxobutan-2-yl)-3,6,9,12,15,18,21,24,27,30,33-undecaoxahexatriacontan-36-amid] | + (‘+’ indicates 5-25% release) |
| CC[C@@]1(O)C(=O)OCc2c1cc1n(c2=O)Cc2c-1nc1cc(F)c(C)c3c1c2[C@@H](NC(=O)C(=O)c1ccc(NC(=O)[C@H](CCCNC(N)=O)NC(=O)[C@@H](NC(=O)CCOCCOCCOCCOCCOCCOCCN=[N+]=[N-])C(C)C)cc1)CC3 [Example 24, 1-azido-N-((S)-1-(((S)-1-((4-(2-(((1S,9S)-9-ethyl-5-fluoro-9-hydroxy-4-methyl-10,13-dioxo-2,3,9,10,13,15-hexahydro-1H,12H-benzo[de]pyrano[3′,4′:6,7]indolizino[1,2-b]quinolin-1-yl)amino)-2-oxoacetyl)phenyl)amino)-1-oxo-5-ureidopentan-2-yl)amino)-3-methyl-1-oxobutan-2-yl)-3,6,9,12,15,18-hexaoxahenicosan-21-amide] | + (‘+’ indicates 5-25% release) |
| CC[C@@]1(O)C(=O)OCc2c1cc1n(c2=O)Cc2c-1nc1cc(F)c(C)c3c1c2[C@@H](NC(=O)OCc1ccc(NC(=O)[C@H](CCCCN)NC(=O)[C@H](Cc2ccccc2)NC(=O)CCOCCOCCOCCOCCOCCOCCOCCOCCOCCOCCN=[N+]=[N-])cc1)CC3 [Example 26, 4-((35S,38S)-38-(4-aminobutyl)-1-azido-35-benzyl-33,36-dioxo-3,6,9,12,15,18,21,24,27,30-decaoxa-34,37-diazanonatriacontan-39-amido)benzyl ((1S,9S)-9-ethyl-5-fluoro-9-hydroxy-4-methyl-10,13-dioxo-2,3,9,10,13,15-hexahydro-1H,12H-benzo[de]pyrano[3′,4′:6,7]indolizino[1,2-b]quinolin-1-yl)carbamate] | + (‘+’ indicates 5-25% release) |
| CC[C@@]1(O)C(=O)OCc2c1cc1n(c2=O)Cc2c-1nc1cc(F)c(C)c3c1c2[C@@H](NC(=O)OCc1ccc(NC(=O)[C@H](CCCNC(N)=O)NC(=O)[C@@H](NC(=O)CCCCCCN=[N+]=[N-])C(C)C)cc1)CC3 [Example 30, 4-((S)-2-((S)-2-(7-Azidoheptanamido)-3-methylbutanamido)-5-ureidopentanamido)benzyl ((1S,9S)-9-ethyl-5-fluoro-9-hydroxy-4-methyl-10,13-dioxo-2,3,9,10,13,15-hexahydro-1H,12H-benzo[de]pyrano[3′,4′:6,7]indolizino[1,2-b]quinolin-1-yl)carbamate] | ++ (‘++’ indicates 26-50% release) |
| CCc1c2c(nc3ccc(OCCCNC(=O)OCc4ccc(NC(=O)[C@H](CCCCN)NC(=O)[C@@H](NC(=O)CCOCCOCCOCCOCCOCCOCCOCCOCCOCCN=[N+]=[N-])C(C)C)cc4)cc13)-c1cc3c(c(=O)n1C2)COC(=O)[C@]3(O)CC [Example 31, 4-((32S,35S)-35-(4-aminobutyl)-1-azido-32-isopropyl-30,33-dioxo-3,6,9,12,15,18,21,24,27-nonaoxa-31,34-diazahexatriacontan-36-amido)benzyl (3-(((S)-4,11-diethyl-4-hydroxy-3,14-dioxo-3,4,12,14-tetrahydro-1H-pyrano[3′,4′:6,7]indolizino[1,2-b]quinolin-9-yl)oxy)propyl)carbamate] | + (‘+’ indicates 5-25% release) |
| CCc1c2c(nc3ccc(OCCCNC(=O)OCc4ccc(NC(=O)[C@H](CCCCN)NC(=O)[C@H](Cc5c[nH]c6ccccc56)NC(=O)CCOCCOCCOCCOCCOCCOCCOCCOCCOCCN=[N+]=[N-])cc4)cc13)-c1cc3c(c(=O)n1C2)COC(=O)[C@]3(O)CC [Example 32, 4-((32S,35S)-32-((1H-indol-3-yl)methyl)-35-(4-aminobutyl)-1-azido-30,33-dioxo-3,6,9,12,15,18,21,24,27-nonaoxa-31,34-diazahexatriacontan-36-amido)benzyl (3-(((S)-4,11-diethyl-4-hydroxy-3,14-dioxo-3,4,12,14-tetrahydro-1H-pyrano[3′,4′:6,7]indolizino[1,2-b]quinolin-9-yl)oxy)propyl)carbamate] | + (‘+’ indicates 5-25% release) |
